In paper PMC11055898 (2024):

Tests used:
human CD64 (FcgRI) [1] = target: T1, human CD64 (FcgRI) (human, UniProt P12314 16-374, biotin (biotinylated Fc receptors)); assay: SPR
human CD64 (FcgRI) [2] = target: T1, human CD64 (FcgRI); assay: SPR; remark: listed apart in the source
mouse CD16-2 [3] = assay: SPR
mouse CD64 [4] = assay: SPR
mouse CD16 [5] = assay: SPR
mouse CD16-2 [6] = assay: SPR; remark: listed apart in the source
mouse CD64 [7] = assay: SPR; remark: listed apart in the source
mouse CD16 [8] = assay: SPR; remark: listed apart in the source
human FcRn [9] = assay: SPR; pH 6.2
human FcRn [10] = assay: SPR; pH 6.2; remark: listed apart in the source

T1 sequence (P12314 16-374): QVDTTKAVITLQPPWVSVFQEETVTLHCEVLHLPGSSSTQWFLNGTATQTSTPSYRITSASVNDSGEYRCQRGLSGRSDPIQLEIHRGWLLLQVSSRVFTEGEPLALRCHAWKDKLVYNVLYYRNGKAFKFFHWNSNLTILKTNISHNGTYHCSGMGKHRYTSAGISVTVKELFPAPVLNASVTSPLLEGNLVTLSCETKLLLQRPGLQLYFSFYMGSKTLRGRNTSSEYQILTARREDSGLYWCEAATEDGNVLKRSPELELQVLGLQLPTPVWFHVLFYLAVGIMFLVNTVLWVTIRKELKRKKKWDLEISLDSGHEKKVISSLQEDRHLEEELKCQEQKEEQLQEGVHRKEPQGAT

B1: Ab11 IgGh47 (antibody)
chain 1: QVTLKESGPVLVKPTETLTLTCTVSGFSLSNAKMGVSWIRQPPGKALEWLAHIFSNDEKSYSTSLKSSLTISKDTSKSQVVLTMTNMDPVDTATYYCARLLWFGGNYFDYWGQGTLVTVSS
chain 2: not shown
Question: How did the koff (human CD64 (FcgRI) [1]) turn out when B1 was run?
Answer: 0.00017 s⁻¹

Question: And the Kd (human CD64 (FcgRI) [2])?
Answer: 2.1 nM

Question: What about the koff (mouse CD16-2 [3]) of the same binder?
Answer: 0.0018 s⁻¹

Question: And the koff (mouse CD64 [4])?
Answer: 0.00083 s⁻¹

Question: And the koff (mouse CD16 [5])?
Answer: 0.00074 s⁻¹

Question: What about the Kd (mouse CD16-2 [6]) of the same binder?
Answer: 24 nM

Question: And the Kd (mouse CD64 [7])?
Answer: 7 nM

Question: What about the Kd (mouse CD16 [8]) of the same binder?
Answer: 15 nM

Question: And the koff (human FcRn [9])?
Answer: 0.00048 s⁻¹

Question: What about the Kd (human FcRn [10]) of the same binder?
Answer: 7.1 nM
